Source: US20230287598A1 (TAURUS BIOSCIENCES, published 2023)
Positions count from the first letter of the chain named. Numbers in names are those of the source. Where two headings read alike, the source gives them in different places.

T1: CXCR1 (UniProt P25024 1-350, limits assumed)
T1 construct: whole, on cells; DiscoveRx PathHunter cell line; any reporter tag on the receptor is not described; also called CXCR1 receptor; CXCR1-U2OS
T1 sequence (looked up): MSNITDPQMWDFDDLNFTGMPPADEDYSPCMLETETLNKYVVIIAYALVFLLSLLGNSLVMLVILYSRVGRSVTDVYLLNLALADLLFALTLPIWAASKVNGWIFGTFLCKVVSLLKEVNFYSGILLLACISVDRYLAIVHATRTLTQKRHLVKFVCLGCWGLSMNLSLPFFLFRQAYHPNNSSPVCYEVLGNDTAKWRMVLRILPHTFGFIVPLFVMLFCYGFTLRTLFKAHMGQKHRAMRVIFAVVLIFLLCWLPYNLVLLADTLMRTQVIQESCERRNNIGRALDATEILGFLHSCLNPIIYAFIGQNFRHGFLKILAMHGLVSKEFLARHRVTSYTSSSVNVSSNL

B1: VH4-34+CDR3-IL8_CDR1 Cow_CDR2 E50S / VL1-51 S2A, T5N, P8S, A12G, A13S, P14L, K46R, L47T, D51G, N52D, N53T IgG (antibody)
VH: QVQLQQWGAGLLKPSETLSLTCTASGFSLSDKAVGWIRQPPGKGLEWIGSINHSGSTNYNPSLKSRVTISVDTSKNQFSLKLSSVTAADTAVYYCTSVHQETKKYQSPRSAKELRCQCIKTYSKPFHPKFIKELRVIESGPHCANTEIIVKLSDGRELCLDPKENWVQRVVEKFLKRAENSGSGSYTYNYEWHVDVWGQGLLVTVSSAS
light: QAVLNQPSSVSGSLGQKVTISCSGSSSNIGNNYVSWYQQLPGTAPRTLIYGDTKRPSGIPDRFSGSKSGTSATLGITGLQTGDEADYYCASAEDSSSNAVFGSGTTLTVLGQPKAAPSVTLFPPSSEELQANKATLVCLISDFYPGAVTVAWKADSSPVKAGVETTTPSKQSNNKYAASSYLSLTPEQWKSHRSYSCQVTHEGSTVEKTVAPTECS
B2: VH4-34+CDR3-IL8_CDR1-Cow_Q5RQ6E / VL1-51 I29V, N32G, K46R, L47T, D51G, N52D, N53T IgG (antibody)
VH: QVQLREWGAGLLKPSETLSLTCTASGFSLSDKAVGWIRQPPGKGLEWIGEINHSGSTNYNPSLKSRVTISVDTSKNQFSLKLSSVTAADTAVYYCTSVHQETKKYQSPRSAKELRCQCIKTYSKPFHPKFIKELRVIESGPHCANTEIIVKLSDGRELCLDPKENWVQRVVEKFLKRAENSGSGSYTYNYEWHVDVWGQGLLVTVSS
light: B1 light with A2S, N5T, S8P, G12A, S13A, L14P, I29V, N32G
B3: VH4-34+CDR3-IL8_CDR1 Cow_CDR2 E50S / VL1-51 S2A, T5N, P8S, A12G, A13S, P14L IgG (antibody)
VH: B1 VH
light: B1 light with R46K, T47L, G51D, D52N, T53N
B4: VH4-34+CDR3-IL8_CDR1-G31DY32K_Q5RQ6E / VL1-51 S2A, T5N, P8S, A12G, A13S, P14L, K46R, L47T, D51G, N52D, N53T, K54S, P56A IgG (antibody)
VH: B2 VH with T23A, A24V, S25Y, F27G, L29F, A33Y, V34W, G35S
light: B1 light with K54S, P56A
B5: VH4-34+CDR3-IL8_CDR1-G31DY32K_CDR2-E50S_Q5RQ6E / VL1-51 S2A, T5N, P8S, A12G, A13S, P14L, D51G, N52D, N53T IgG (antibody)
VH: B2 VH with T23A, A24V, S25Y, F27G, L29F, A33Y, V34W, G35S, E50S
light: B1 light with R46K, T47L
B6: VH4-34+CDR3-IL8_CDR1 G31D,Y32K / VL1-51 S2A, T5N, P8S, A12G, A13S, P14L, K46R, L47T, D51G, N52D, N53T IgG (antibody)
VH: B1 VH with T23A, A24V, S25Y, F27G, L29F, A33Y, V34W, G35S, S50E
light: B1 light
notes: nt HC 434, LC 486
B7: VH4-34+CDR3-IL8_CDR1-Cow_CDR2-Cow / VL1-51 S2A, T5N, P8S, A12G, A13S, P14L IgG (antibody)
VH: B1 VH with I48L, N52D, H53T, S54G, S56N, N58G
light: B1 light with R46K, T47L, G51D, D52N, T53N
notes: also called BID 36; VH4-34 MutB IL-8 CDR1cow CDR2cow
B8: VH4-34+CDR3-IL8_CDR1-G31DY32K_CDR2-E50S_Q5RQ6E / VL1-51 S2A, T5N, P8S, A12G, A13S, P14L, K46R, L47T, D51G, N52D, N53T, K54S, P56A IgG (antibody)
VH: B2 VH with T23A, A24V, S25Y, F27G, L29F, A33Y, V34W, G35S, E50S
light: B1 light with K54S, P56A
B9: VH4-34+CDR3-IL8_CDR1-Cow_CDR2-E50S_Q5RQ6E / VL1-51 S2A, T5N, P8S, A12G, A13S, P14L, D51G, N52D, N53T IgG (antibody)
VH: B2 VH with E50S
light: B1 light with R46K, T47L
B10: VH4-34+CDR3-IL8_CDR1-Cow_CDR2-E50S_Q5RQ6E / VL1-51 I29V, N32G, K46R, L47T, D51G, N52D, N53T, K54S, P56A IgG (antibody)
VH: B2 VH with E50S
light: B1 light with A2S, N5T, S8P, G12A, S13A, L14P, I29V, N32G, K54S, P56A
B11: VH4-34+CDR3-IL8_CDR1-Cow_CDR2-Cow_Q5RQ6E / VL1-51 S2A, T5N, P8S, A12G, A13S, P14L, D51G, N52D, N53T IgG (antibody)
VH: B2 VH with I48L, E50S, N52D, H53T, S54G, S56N, N58G
light: B1 light with R46K, T47L
B12: VH4-34+CDR3-IL8_CDR1-Cow_Q5RQ6E / VL1-51 S2A, T5N, P8S, A12G, A13S, P14L, K46R, L47T, D51G, N52D, N53T IgG (antibody)
VH: B2 VH
light: B1 light
notes: also called BID 43; VH4-34 MutF IL-8 5R6E CD1cow
B13: VH4-34+CDR3-IL8_CDR2-E50S_Q5RQ6E / VL1-51 S2A, T5N, P8S, A12G, A13S, P14L, K46R, L47T, D51G, N52D, N53T, K54S, P56A IgG (antibody)
VH: QVQLREWGAGLLKPSETLSLTCAVYGGSFSGYYWSWIRQPPGKGLEWIGSINHSGSTNYNPSLKSRVTISVDTSKNQFSLKLSSVTAADTAVYYCTSVHQETKKYQSPRSAKELRCQCIKTYSKPFHPKFIKELRVIESGPHCANTEIIVKLSDGRELCLDPKENWVQRVVEKFLKRAENSGSGSYTYNYEWHVDVWGQGLLVTVSS
light: B1 light with K54S, P56A
B14: VH4-34+CDR3-IL8_CDR1-Cow / VL1-51 S2A, T5N, P8S, A12G, A13S, P14L IgG (antibody)
VH: B1 VH with S50E
light: B1 light with R46K, T47L, G51D, D52N, T53N
notes: also called BID 34
B15: VH4-34+CDR3-IL8_CDR1 G31D,Y32K_CDR2 E50S / VL1-51 S2A, T5N, P8S, A12G, A13S, P14L IgG (antibody)
VH: B1 VH with T23A, A24V, S25Y, F27G, L29F, A33Y, V34W, G35S
light: B1 light with R46K, T47L, G51D, D52N, T53N
B16: VH4-34+CDR3-IL8_CDR1 Cow_CDR2 Cow / VL1-51 S2A, T5N, P8S, A12G, A13S, P14L, D51G, N52D, N53T IgG (antibody)
VH: B1 VH with I48L, N52D, H53T, S54G, S56N, N58G
light: B1 light with R46K, T47L
B17: VH4-34+CDR3-IL8_CDR1 Cow / VL1-51 S2A, T5N, P8S, A12G, A13S, P14L, D51G, N52D, N53T IgG (antibody)
VH: B1 VH with S50E
light: B1 light with R46K, T47L

Key:
[1] = target: T1, CXCR1; assay: flow cytometry, supernatant at 5 nM IgG
[2] = target: T1, CXCR1; assay: flow cytometry, supernatant at 5 nM IgG; remark: listed apart in the source

Binder | Specific Binding (CXCR1-Cell median AFU / Parental Cell median AFU) [1] | Specific Binding (CXCR1-Cell median AFU / Parental Cell median AFU) [2]
B1 | 6 | –
B2 | – | 1
B3 | 5 | –
B4 | – | 2
B5 | – | 1
B6 | 15 | –
B7 | 11 | –
B8 | – | 3
B9 | – | 2
B10 | – | 2
B11 | – | 4
B12 | – | 10
B13 | – | 1
B14 | 4 | –
B15 | 5 | –
B16 | 10 | –
B17 | 4 | –
